# Source: patent US20150344570A1 (published 2015)
# T1: FcγRIIa H (FcγRIIa type H, His at position 131), extracellular domain with C-terminal His tag (human, UniProt P12318 34-217)
# T1 construct: extracellular domain; also called FcgRIIa H; 2aH
# T1 sequence (looked up): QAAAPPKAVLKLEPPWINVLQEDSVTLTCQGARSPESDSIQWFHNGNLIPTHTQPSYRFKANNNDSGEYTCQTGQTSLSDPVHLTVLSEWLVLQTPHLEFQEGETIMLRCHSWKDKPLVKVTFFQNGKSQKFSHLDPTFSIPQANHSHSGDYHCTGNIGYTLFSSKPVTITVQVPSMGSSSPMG
# Target: T1, FcγRIIa H (FcγRIIa type H, His at …)
# Experiment: SPR Biacore, relative binding, GpH7-B3/GpL16-k0 (HoCon Ab)=100
# Description: Analysis of interaction between objective antibody and the FcγR was carried out using Biacore T100 (GE Healthcare). HBS-EP+ (GE Healthcare) was used as the running buffer, and the measurement temperature was set to 25° C. Chips produced by immobilizing the antigen peptide by the amine coupling method to a Series S Sencor Chip CM5 (GE Healthcare), or alternatively, chips produced by allowing preliminarily biotinylated antigen peptides to interact with and immobilize onto a Series S Sensor Chip SA (certified) (GE Healthcare) were used. Antibodies of interest were captured onto an antigen peptide-immobilized chip, and allowed to interact to each FcγR diluted with running buffer. To regenerate and repeatedly use the chip, the antibodies captured on the chip were washed off by reacting 10 mM glycine-HCl, pH 1.5.
row,Ho/Con_2aH,Binder
1,110 % of control,"GpH7-B3 variant P271_01G/GpL16-k0 (antibody, human IgG1, kappa, both H chains mutated; also called Ho Ab) heavy: not shown light: DIVMTQSPLSLPVTPGEPASISCQASESLVHSNRNTYLHWYLQKPGQSPQLLIYKVSNRFSGVPDRFSGSGSGTDFTLKISRVEAEDVGVYYCSQNTHVPPTFGQGTKVEIERTVAAPSVFIFPPSDEQLKSGTASVVCLLNNFYPREAKVQWKVDNALQSGNSQESVTEQDSKDSTYSLSSTLTLSKADYEKHKVYACEVTHQGLSSPVTKSFNRGEC"
2,103 % of control,"GpH7-B3 variant K334_08L/GpL16-k0 (antibody, human IgG1, kappa, both H chains mutated; also called Ho Ab) heavy: not shown light: DIVMTQSPLSLPVTPGEPASISCQASESLVHSNRNTYLHWYLQKPGQSPQLLIYKVSNRFSGVPDRFSGSGSGTDFTLKISRVEAEDVGVYYCSQNTHVPPTFGQGTKVEIERTVAAPSVFIFPPSDEQLKSGTASVVCLLNNFYPREAKVQWKVDNALQSGNSQESVTEQDSKDSTYSLSSTLTLSKADYEKHKVYACEVTHQGLSSPVTKSFNRGEC"
3,120 % of control,"GpH7-B3 variant S267_02A/GpL16-k0 (antibody, human IgG1, kappa, both H chains mutated; also called Ho Ab) heavy: not shown light: DIVMTQSPLSLPVTPGEPASISCQASESLVHSNRNTYLHWYLQKPGQSPQLLIYKVSNRFSGVPDRFSGSGSGTDFTLKISRVEAEDVGVYYCSQNTHVPPTFGQGTKVEIERTVAAPSVFIFPPSDEQLKSGTASVVCLLNNFYPREAKVQWKVDNALQSGNSQESVTEQDSKDSTYSLSSTLTLSKADYEKHKVYACEVTHQGLSSPVTKSFNRGEC"
4,101 % of control,"GpH7-B3 variant K334_16H/GpL16-k0 (antibody, human IgG1, kappa, both H chains mutated; also called Ho Ab) heavy: not shown light: DIVMTQSPLSLPVTPGEPASISCQASESLVHSNRNTYLHWYLQKPGQSPQLLIYKVSNRFSGVPDRFSGSGSGTDFTLKISRVEAEDVGVYYCSQNTHVPPTFGQGTKVEIERTVAAPSVFIFPPSDEQLKSGTASVVCLLNNFYPREAKVQWKVDNALQSGNSQESVTEQDSKDSTYSLSSTLTLSKADYEKHKVYACEVTHQGLSSPVTKSFNRGEC"
5,112 % of control,"GpH7-B3 variant S239_09D/GpL16-k0 (antibody, human IgG1, kappa, both H chains mutated; also called Ho Ab) heavy: not shown light: DIVMTQSPLSLPVTPGEPASISCQASESLVHSNRNTYLHWYLQKPGQSPQLLIYKVSNRFSGVPDRFSGSGSGTDFTLKISRVEAEDVGVYYCSQNTHVPPTFGQGTKVEIERTVAAPSVFIFPPSDEQLKSGTASVVCLLNNFYPREAKVQWKVDNALQSGNSQESVTEQDSKDSTYSLSSTLTLSKADYEKHKVYACEVTHQGLSSPVTKSFNRGEC"

# Further lines, the binder ahead of its results:
row,Binder,Ho/Con_2aH
1,"GpH7-B3 variant K334_07[ (read as K334_07I)/GpL16-k0 (antibody, human IgG1, kappa, both H chains mutated; also called Ho Ab) heavy: not shown light: DIVMTQSPLSLPVTPGEPASISCQASESLVHSNRNTYLHWYLQKPGQSPQLLIYKVSNRFSGVPDRFSGSGSGTDFTLKISRVEAEDVGVYYCSQNTHVPPTFGQGTKVEIERTVAAPSVFIFPPSDEQLKSGTASVVCLLNNFYPREAKVQWKVDNALQSGNSQESVTEQDSKDSTYSLSSTLTLSKADYEKHKVYACEVTHQGLSSPVTKSFNRGEC",116 % of control
2,"GpH7-B3 variant Q295_07I/GpL16-k0 (antibody, human IgG1, kappa, both H chains mutated; also called Ho Ab) heavy: not shown light: DIVMTQSPLSLPVTPGEPASISCQASESLVHSNRNTYLHWYLQKPGQSPQLLIYKVSNRFSGVPDRFSGSGSGTDFTLKISRVEAEDVGVYYCSQNTHVPPTFGQGTKVEIERTVAAPSVFIFPPSDEQLKSGTASVVCLLNNFYPREAKVQWKVDNALQSGNSQESVTEQDSKDSTYSLSSTLTLSKADYEKHKVYACEVTHQGLSSPVTKSFNRGEC",108 % of control
3,"GpH7-B3 variant Q295_05P/GpL16-k0 (antibody, human IgG1, kappa, both H chains mutated; also called Ho Ab) heavy: not shown light: DIVMTQSPLSLPVTPGEPASISCQASESLVHSNRNTYLHWYLQKPGQSPQLLIYKVSNRFSGVPDRFSGSGSGTDFTLKISRVEAEDVGVYYCSQNTHVPPTFGQGTKVEIERTVAAPSVFIFPPSDEQLKSGTASVVCLLNNFYPREAKVQWKVDNALQSGNSQESVTEQDSKDSTYSLSSTLTLSKADYEKHKVYACEVTHQGLSSPVTKSFNRGEC",106 % of control
4,"GpH7-B3 variant L235_20W/GpL16-k0 (antibody, human IgG1, kappa, both H chains mutated; also called Ho Ab) heavy: not shown light: DIVMTQSPLSLPVTPGEPASISCQASESLVHSNRNTYLHWYLQKPGQSPQLLIYKVSNRFSGVPDRFSGSGSGTDFTLKISRVEAEDVGVYYCSQNTHVPPTFGQGTKVEIERTVAAPSVFIFPPSDEQLKSGTASVVCLLNNFYPREAKVQWKVDNALQSGNSQESVTEQDSKDSTYSLSSTLTLSKADYEKHKVYACEVTHQGLSSPVTKSFNRGEC",112 % of control
5,"GpH7-B3 variant S324_02A/GpL16-k0 (antibody, human IgG1, kappa, both H chains mutated; also called Ho Ab) heavy: not shown light: DIVMTQSPLSLPVTPGEPASISCQASESLVHSNRNTYLHWYLQKPGQSPQLLIYKVSNRFSGVPDRFSGSGSGTDFTLKISRVEAEDVGVYYCSQNTHVPPTFGQGTKVEIERTVAAPSVFIFPPSDEQLKSGTASVVCLLNNFYPREAKVQWKVDNALQSGNSQESVTEQDSKDSTYSLSSTLTLSKADYEKHKVYACEVTHQGLSSPVTKSFNRGEC",102 % of control
6,"GpH7-B3 variant K334_15Y/GpL16-k0 (antibody, human IgG1, kappa, both H chains mutated; also called Ho Ab) heavy: not shown light: DIVMTQSPLSLPVTPGEPASISCQASESLVHSNRNTYLHWYLQKPGQSPQLLIYKVSNRFSGVPDRFSGSGSGTDFTLKISRVEAEDVGVYYCSQNTHVPPTFGQGTKVEIERTVAAPSVFIFPPSDEQLKSGTASVVCLLNNFYPREAKVQWKVDNALQSGNSQESVTEQDSKDSTYSLSSTLTLSKADYEKHKVYACEVTHQGLSSPVTKSFNRGEC",110 % of control
7,"GpH7-B3 variant L328_06M/GpL16-k0 (antibody, human IgG1, kappa, both H chains mutated; also called Ho Ab) heavy: not shown light: DIVMTQSPLSLPVTPGEPASISCQASESLVHSNRNTYLHWYLQKPGQSPQLLIYKVSNRFSGVPDRFSGSGSGTDFTLKISRVEAEDVGVYYCSQNTHVPPTFGQGTKVEIERTVAAPSVFIFPPSDEQLKSGTASVVCLLNNFYPREAKVQWKVDNALQSGNSQESVTEQDSKDSTYSLSSTLTLSKADYEKHKVYACEVTHQGLSSPVTKSFNRGEC",100 % of control
8,"GpH7-B3 variant L328_02A/GpL16-k0 (antibody, human IgG1, kappa, both H chains mutated; also called Ho Ab) heavy: not shown light: DIVMTQSPLSLPVTPGEPASISCQASESLVHSNRNTYLHWYLQKPGQSPQLLIYKVSNRFSGVPDRFSGSGSGTDFTLKISRVEAEDVGVYYCSQNTHVPPTFGQGTKVEIERTVAAPSVFIFPPSDEQLKSGTASVVCLLNNFYPREAKVQWKVDNALQSGNSQESVTEQDSKDSTYSLSSTLTLSKADYEKHKVYACEVTHQGLSSPVTKSFNRGEC",134 % of control
9,"GpH7-B3 variant L328_14T/GpL16-k0 (antibody, human IgG1, kappa, both H chains mutated; also called Ho Ab) heavy: not shown light: DIVMTQSPLSLPVTPGEPASISCQASESLVHSNRNTYLHWYLQKPGQSPQLLIYKVSNRFSGVPDRFSGSGSGTDFTLKISRVEAEDVGVYYCSQNTHVPPTFGQGTKVEIERTVAAPSVFIFPPSDEQLKSGTASVVCLLNNFYPREAKVQWKVDNALQSGNSQESVTEQDSKDSTYSLSSTLTLSKADYEKHKVYACEVTHQGLSSPVTKSFNRGEC",110 % of control
10,"GpH7-B3 variant L328_13S/GpL16-k0 (antibody, human IgG1, kappa, both H chains mutated; also called Ho Ab) heavy: not shown light: DIVMTQSPLSLPVTPGEPASISCQASESLVHSNRNTYLHWYLQKPGQSPQLLIYKVSNRFSGVPDRFSGSGSGTDFTLKISRVEAEDVGVYYCSQNTHVPPTFGQGTKVEIERTVAAPSVFIFPPSDEQLKSGTASVVCLLNNFYPREAKVQWKVDNALQSGNSQESVTEQDSKDSTYSLSSTLTLSKADYEKHKVYACEVTHQGLSSPVTKSFNRGEC",131 % of control
11,"GpH7-B3 variant K334_14T/GpL16-k0 (antibody, human IgG1, kappa, both H chains mutated; also called Ho Ab) heavy: not shown light: DIVMTQSPLSLPVTPGEPASISCQASESLVHSNRNTYLHWYLQKPGQSPQLLIYKVSNRFSGVPDRFSGSGSGTDFTLKISRVEAEDVGVYYCSQNTHVPPTFGQGTKVEIERTVAAPSVFIFPPSDEQLKSGTASVVCLLNNFYPREAKVQWKVDNALQSGNSQESVTEQDSKDSTYSLSSTLTLSKADYEKHKVYACEVTHQGLSSPVTKSFNRGEC",105 % of control
